Reference: article PMC10975748 (2024)

Target: Kv1.2 (Homo sapiens, UniProt P16389)
Test: patch-clamp electrophysiology

Kv1.2, sequence (P16389 whole entry): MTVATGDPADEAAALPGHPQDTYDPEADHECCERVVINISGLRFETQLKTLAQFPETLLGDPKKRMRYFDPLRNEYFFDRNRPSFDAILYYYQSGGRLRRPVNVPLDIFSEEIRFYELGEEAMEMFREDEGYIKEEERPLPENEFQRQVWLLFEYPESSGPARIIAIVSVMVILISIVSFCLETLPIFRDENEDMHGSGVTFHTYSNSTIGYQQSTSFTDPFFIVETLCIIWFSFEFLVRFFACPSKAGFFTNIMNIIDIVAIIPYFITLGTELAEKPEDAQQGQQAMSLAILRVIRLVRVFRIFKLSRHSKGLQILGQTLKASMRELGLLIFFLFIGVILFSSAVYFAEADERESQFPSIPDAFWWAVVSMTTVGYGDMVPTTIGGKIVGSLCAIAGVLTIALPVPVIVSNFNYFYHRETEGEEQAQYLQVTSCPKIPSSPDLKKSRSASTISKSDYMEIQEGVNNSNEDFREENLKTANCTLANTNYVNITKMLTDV

Question: How did the Kd turn out when TFINHKCKSSSECLPACKAAIGRASGKCINSTCKCYY [Cm39] was run?
Answer: Its Kd is 65 nM.
